We go through two molecules from patent publication US20030013651A1 (BARNES JEWISH HOSPITAL, published 2003).

The assay concerns the target T1, RANK (Receptor Activator of NF-kappa B) on primary murine cells (murine, UniProt O35305 31-625).
T1 construct: whole, on cells; Endogenous receptor on the cells
T1 sequence (looked up): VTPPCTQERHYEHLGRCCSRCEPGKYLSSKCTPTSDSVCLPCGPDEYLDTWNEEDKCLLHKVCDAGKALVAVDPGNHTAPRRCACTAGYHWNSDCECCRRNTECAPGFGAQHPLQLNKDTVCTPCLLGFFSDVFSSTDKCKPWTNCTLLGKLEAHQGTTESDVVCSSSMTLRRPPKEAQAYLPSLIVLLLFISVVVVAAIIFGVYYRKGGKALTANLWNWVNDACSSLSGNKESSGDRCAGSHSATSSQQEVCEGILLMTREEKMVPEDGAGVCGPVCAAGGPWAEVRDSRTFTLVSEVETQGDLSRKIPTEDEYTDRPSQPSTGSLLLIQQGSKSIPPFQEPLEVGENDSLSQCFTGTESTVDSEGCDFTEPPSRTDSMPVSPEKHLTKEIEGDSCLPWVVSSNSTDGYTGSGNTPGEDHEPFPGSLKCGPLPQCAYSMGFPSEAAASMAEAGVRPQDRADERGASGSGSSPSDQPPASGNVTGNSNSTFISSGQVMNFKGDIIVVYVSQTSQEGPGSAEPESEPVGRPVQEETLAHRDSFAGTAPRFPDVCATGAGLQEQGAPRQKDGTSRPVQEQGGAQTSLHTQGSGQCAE
Put plainly: confocal microscopy of primary murine osteoblasts exposed to 5 nM ligand, RANK stained with anti-RANK antibody. How it is done: Primary murine osteoblasts were maintained in α-MEM containing 10% fetal bovine serum, and cultured in MEM containing 15% FBS, 50 μM ascorbic acid, and 10 mM β-glycerophosphate for differentiation. Cells were maintained at 37° C. in a humidified atmosphere containing 6% CO₂, with daily replenishment of media and cytokines. Primary murine osteoblasts were cultured on coverslips in A-MEM containing 10% fetal bovine serum and treated with GST-RANKL or cleaved RANKL for the indicated times. For phospholipid membrane staining, cells were incubated for 20 minutes with Vybrant Dil lipophilic carbocyanine membrane fluorescent stain (Molecular Probes). Cells were fixed in 4% paraformaldehyde, permeabilized with 0.1% Triton-X, blocked with 1% BSA/0.2% nonfat dry milk in PBS, and stained for RANK with a polyclonal anti-RANK antibody. Serial optical sections were obtained using a Radiance2100 laser scanning confocal microscope (BioRad). Microscope settings were calibrated to black level values using cells stained with an isotypic Ig control. GST-RANKL was cleaved as described in Example 12.
Primary osteoblasts in culture were exposed to 5 nM cleaved RANKL or GST-RANKL. […] Confocal microscopy was employed to localize RANK (green fluorescence) and the cell surface (red fluorescence). On the merged images, colocalization of RANK and the cell surface appears yellow (overlap of green and red fluorescence). […]

B1: GST-RANKL fusion protein (glutathione S-transferase fused N-terminally to murine RANKL residues 158-316) (ligand)
chain: KPEAQPFAHLTINAASIPSGSHKVTLSSWYHDRGWAKISNMTLSNGKLRVNQDGFYYLYANICFRHHETSGSVPTDYLQLMVYVVKTSIKIPSSHNLMKGGSTKNWSGNSEFHFYSINVGGFFKLRAGEEISIQVSNPSLLDPDQDATYFGAFKVQDID
notes: By size exclusion it is a polydisperse mixture of mono-trimeric (1 n) and oligomeric (2-100 n) units; also called oligomeric GST-RANKL; not shown: vector-encoded linker with protease site between GST and the SalI cloning site
For the molecule B1, the binding result is “binds”.

B2: cleaved RANKL (murine RANKL residues 158-316 with GST removed by rhinovirus 3C protease) (ligand)
chain: B1 chain
notes: It migrated as a single trimeric species (1 n) in gel filtration; also called RANKL alone
Turning to B2, the binding result is “binds”.
